Reference: US20230038638A1, “COMPLEMENT FACTOR I-RELATED COMPOSITIONS AND METHODS” (published 2023)

Assays:
[1] = molecular target: T1, human C4b (human) (UniProt P0C0L5)
T1 sequence: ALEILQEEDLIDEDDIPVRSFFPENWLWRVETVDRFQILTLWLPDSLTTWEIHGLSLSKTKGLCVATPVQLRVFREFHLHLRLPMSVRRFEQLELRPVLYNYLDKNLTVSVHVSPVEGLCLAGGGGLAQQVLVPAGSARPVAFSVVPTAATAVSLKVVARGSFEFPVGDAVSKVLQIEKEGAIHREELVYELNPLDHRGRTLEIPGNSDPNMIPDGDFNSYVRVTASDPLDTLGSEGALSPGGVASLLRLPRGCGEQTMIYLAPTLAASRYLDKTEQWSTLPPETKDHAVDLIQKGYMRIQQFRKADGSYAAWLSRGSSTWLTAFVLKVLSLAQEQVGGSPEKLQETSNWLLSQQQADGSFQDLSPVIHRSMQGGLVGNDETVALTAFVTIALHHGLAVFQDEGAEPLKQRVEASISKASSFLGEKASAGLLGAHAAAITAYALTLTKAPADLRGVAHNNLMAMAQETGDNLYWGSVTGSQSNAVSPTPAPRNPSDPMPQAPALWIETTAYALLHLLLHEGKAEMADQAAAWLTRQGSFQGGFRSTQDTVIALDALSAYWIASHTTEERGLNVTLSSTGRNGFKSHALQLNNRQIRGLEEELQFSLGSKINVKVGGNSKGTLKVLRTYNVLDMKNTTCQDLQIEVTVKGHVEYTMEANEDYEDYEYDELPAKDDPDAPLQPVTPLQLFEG

[2] = molecular target: soluble human C3b (human) (UniProt P01024)

Chain of WT; GGSSGG (SEQ ID NO: 6); CCP_1-4 (enzyme) (chain): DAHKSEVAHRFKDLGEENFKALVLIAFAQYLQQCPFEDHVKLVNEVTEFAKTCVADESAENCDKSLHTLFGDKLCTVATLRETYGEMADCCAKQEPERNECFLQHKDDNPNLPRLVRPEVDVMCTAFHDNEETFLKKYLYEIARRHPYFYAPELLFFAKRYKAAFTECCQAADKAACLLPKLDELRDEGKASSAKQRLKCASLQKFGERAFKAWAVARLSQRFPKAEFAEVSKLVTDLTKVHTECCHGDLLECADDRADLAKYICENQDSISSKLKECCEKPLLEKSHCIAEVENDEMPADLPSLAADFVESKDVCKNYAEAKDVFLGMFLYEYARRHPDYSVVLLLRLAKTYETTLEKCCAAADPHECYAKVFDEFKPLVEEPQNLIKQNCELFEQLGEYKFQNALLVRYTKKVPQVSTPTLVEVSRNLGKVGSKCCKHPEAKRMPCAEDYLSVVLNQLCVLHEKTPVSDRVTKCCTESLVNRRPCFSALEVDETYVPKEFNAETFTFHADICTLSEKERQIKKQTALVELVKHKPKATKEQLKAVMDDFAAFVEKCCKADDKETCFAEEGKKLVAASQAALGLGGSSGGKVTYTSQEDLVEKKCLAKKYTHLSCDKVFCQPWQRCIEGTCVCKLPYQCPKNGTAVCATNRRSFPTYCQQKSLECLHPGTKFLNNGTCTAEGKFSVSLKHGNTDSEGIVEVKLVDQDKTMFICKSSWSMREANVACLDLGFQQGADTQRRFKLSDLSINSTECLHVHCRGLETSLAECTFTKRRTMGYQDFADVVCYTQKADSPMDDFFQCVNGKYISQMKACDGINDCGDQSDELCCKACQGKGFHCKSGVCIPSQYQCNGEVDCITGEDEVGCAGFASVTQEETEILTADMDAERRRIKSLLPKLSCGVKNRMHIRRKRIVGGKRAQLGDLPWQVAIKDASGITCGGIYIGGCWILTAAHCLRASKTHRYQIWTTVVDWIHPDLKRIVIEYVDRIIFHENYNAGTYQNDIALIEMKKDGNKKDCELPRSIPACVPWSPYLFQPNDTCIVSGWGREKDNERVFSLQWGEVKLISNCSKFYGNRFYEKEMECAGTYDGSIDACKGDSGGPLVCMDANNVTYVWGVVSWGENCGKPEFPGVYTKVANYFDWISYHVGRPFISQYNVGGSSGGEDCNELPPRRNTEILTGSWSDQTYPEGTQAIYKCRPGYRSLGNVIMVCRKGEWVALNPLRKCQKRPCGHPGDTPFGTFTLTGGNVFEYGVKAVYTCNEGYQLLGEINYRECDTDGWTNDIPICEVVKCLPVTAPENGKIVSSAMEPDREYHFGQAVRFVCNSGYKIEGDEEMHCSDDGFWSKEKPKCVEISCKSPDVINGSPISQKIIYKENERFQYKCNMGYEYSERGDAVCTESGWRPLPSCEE

Substance	C4b Screen Ref Fold (fold vs CFI-HSA wild type) [1]	iC3b Screen Ref Fold (fold vs CFI-HSA wild type) [2]	further results
CFI-HSA R557W (enzyme)	2.36	0.12	–
CFI-HSA variant N531G; P535G; WT; GGSSGG (SEQ ID NO: 6); CR1(ccp15-17) (from UniProt P17927) (enzyme)	–	–	C4b Screen Ref Fold (fold of CFI-HSA wild type) [1]: 3.06; iC3b Screen Ref Fold (fold of CFI-HSA wild type) [2]: 0.06
CFI-HSA variant Δ(K1-P305) (enzyme)	0.06	0.04	–
CFI-HSA N531G; P535A; R557K (enzyme)	4.13	1.65	–
CFI-HSA variant Y403F; G406A; D425K; E457G; E461Q; K504Y; N531G (enzyme)	–	–	C4b Screen Ref Fold (fold relative to CFI-HSA wild type) [1]: 3.16; iC3b Screen Ref Fold (fold relative to CFI-HSA wild type) [2]: 0.02
CFI-HSA K424D (enzyme)	0.27	1.15	–
CFI-HSA variant Y553F; P558S (enzyme)	–	–	C4b Screen Ref Fold (fold of CFI-HSA wild type) [1]: 1.26; iC3b Screen Ref Fold (fold of CFI-HSA wild type) [2]: 0.84
CFI-HSA R456G (enzyme)	0.04	0.03	–
CFI-HSA variant Y408L; E457G; P535G; N422K (enzyme)	–	–	C4b Screen Ref Fold (fold of CFI-HSA wild type) [1]: 1.07; iC3b Screen Ref Fold (fold of CFI-HSA wild type) [2]: 1.39
CFI-HSA R484G (enzyme)	0.64	0.77	–
CFI-HSA Y553A (enzyme)	0.52	1.1	–
CFI-HSA Y408L; N531G; E530Y (enzyme)	2.25	2.11	–
CFI-HSA variant R462K (enzyme)	0.27	0.24	–
CFI-HSA variant R462A (enzyme)	0.31	0.11	–
CFI-HSA variant A328C; W468C (enzyme)	-0.06	0	–
CFI-HSA R365I (enzyme)	1.16	0.3	–
CFI-HSA variant K326A-R327A (enzyme)	0.2	0.37	–
WT; GGSSGG (SEQ ID NO: 6); CCP_1-5; GGSS(3) + GGG; compstatin (enzyme)	0.25	0.03	–
CFI-HSA variant Δ(K1-P305); N531G; P535A (enzyme)	0.15	0.05	–
CFI-HSA variant S507A (enzyme)	0.13	0.04	–
CFI-HSA variant F559L; V565I; P558S (enzyme)	–	–	C4b Screen Ref Fold (fold of CFI-HSA wild type) [1]: 0.43; iC3b Screen Ref Fold (fold of CFI-HSA wild type) [2]: 0.49

Substance	C4b Screen Ref Fold (fold vs CFI-HSA wild type) [1]	iC3b Screen Ref Fold (fold vs CFI-HSA wild type) [2]	further results
CFI-HSA Q69G (enzyme)	0.14	1.17	–
CFI-HSA K424M (enzyme)	0.33	0.95	–
CFI-HSA K424R (enzyme)	0.32	0.97	–
CFI-HSA R557N (enzyme)	1.87	0.05	–
CFI-HSA E457G; E461Q; N531G; GGSSGG (SEQ ID NO: 6); CR1 (ccp15-17) (from UniProt P17927) (enzyme)	4.82	0.12	–
CFI-HSA variant H370A (enzyme)	0.37	0.57	–
CFI-HSA variant E457G; N531G; P535G; WT; GGSSGG (SEQ ID NO: 6); CR1(ccp15-17) (from UniProt P17927) (enzyme)	–	–	C4b Screen Ref Fold (fold of CFI-HSA wild type) [1]: 5.82; iC3b Screen Ref Fold (fold of CFI-HSA wild type) [2]: 0.03
CFI-HSA variant S552G; F559L; V565I; P558S (enzyme)	–	–	C4b Screen Ref Fold (fold of CFI-HSA wild type) [1]: 1.8; iC3b Screen Ref Fold (fold of CFI-HSA wild type) [2]: 0.49
CFI-HSA variant T495F; Y496L; D497E; S499G; I500K; G533A; K534Q; P535K; E536N; F537K (enzyme)	-0.02	0.02	–
CFI-HSA variant V323A (enzyme)	0.01	0.05	–
CFI-HSA E457G; N531G; E461Q; R462K; F464Y; GGSSGG (SEQ ID NO: 6); CR1 (ccp15-17) (from UniProt P17927) (enzyme)	4.36	0.1	–
CFI-HSA V540G (enzyme)	0.01	0.03	–
CFI-HSA Y553L (enzyme)	0.67	0.93	–
CFI-HSA K424S (enzyme)	-0.1	0.29	–
CFI-HSA K424I (enzyme)	0.28	1.48	–
CFI-HSA D459G (enzyme)	1.07	1.93	–
CFI-HSA R327G (enzyme)	0.26	0.5	–
CFI-HSA Y553N (enzyme)	0.6	0.63	–
CFI-HSA variant Y408L; D425K (enzyme)	–	–	C4b Screen Ref Fold (fold of CFI-HSA wild type) [1]: 1.29; iC3b Screen Ref Fold (fold of CFI-HSA wild type) [2]: 1.14
CFI-HSA E457G; E461Q; R557A (enzyme)	4.5	1.29	–
CFI-HSA variant Y553H; F559L; P558S (enzyme)	–	–	C4b Screen Ref Fold (fold of CFI-HSA wild type) [1]: 0.69; iC3b Screen Ref Fold (fold of CFI-HSA wild type) [2]: 0.22

Substance	C4b Screen Ref Fold (fold vs CFI-HSA wild type) [1]	iC3b Screen Ref Fold (fold vs CFI-HSA wild type) [2]	further results
CFI-HSA variant Δ(K1-P305); 1317D-R318D-R319D-K320D-R321K (enzyme)	0.06	0.03	–
CFI-HSA variant A328C; W468C; K326Y; R327N (enzyme)	0.15	0.01	–
CFI-HSA R365S (enzyme)	0.18	0.6	–
CFI-HSA variant Y408L; E457G; N531G; WT; GGSSGG (SEQ ID NO: 6); CR1(ccp15-17) (from UniProt P17927) (enzyme)	–	–	C4b Screen Ref Fold (fold of CFI-HSA wild type) [1]: 3.65; iC3b Screen Ref Fold (fold of CFI-HSA wild type) [2]: 0.1
CFI-HSA variant Y408G (enzyme)	0.05	0.27	–
CFI-HSA Y553E (enzyme)	0.51	0.38	–
CFI-HSA Y408L; E457G; D425R; E530Y (enzyme)	1.68	1.74	–
CFI-HSA variant 420-DGNK (SEQ ID NO: 15)-424 --> GG (enzyme)	0.07	0.15	–
CFI-HSA R365M (enzyme)	0.13	0.43	–
CFI-HSA variant Y553H; V565I (enzyme)	–	–	C4b Screen Ref Fold (fold of CFI-HSA wild type) [1]: 1.97; iC3b Screen Ref Fold (fold of CFI-HSA wild type) [2]: 1.32
CFI-HSA variant E530G (enzyme)	-0.02	0.12	–
CFI-HSA variant E536A (enzyme)	0.57	0.76	–
CFI-HSA variant S507A; GGSSGG (SEQ ID NO: 6); CR1(ccp1-3) (from UniProt P17927) (enzyme)	–	–	C4b Screen Ref Fold (fold of CFI-HSA wild type) [1]: 0.12; iC3b Screen Ref Fold (fold of CFI-HSA wild type) [2]: 0.02
CFI-HSA E457G; E461Q; F464Y; N531G; GGSSGG (SEQ ID NO: 6); CR1 (ccp15-17) (from UniProt P17927) (enzyme)	4.44	0.13	–
CFI-HSA variant E38A; D425R (enzyme)	0.96	0.83	–
WT; GGSSGG (SEQ ID NO: 6); CCP_1-4 (enzyme)	0.21	0.02	–
CFI-HSA A502G (enzyme)	0.06	0.09	–
CFI-HSA variant Y553F; F559L (enzyme)	–	–	C4b Screen Ref Fold (fold of CFI-HSA wild type) [1]: 0.77; iC3b Screen Ref Fold (fold of CFI-HSA wild type) [2]: 0.35
CFI-HSA Y408L; E457G; N531G; E530Y (enzyme)	4.16	2.07	–
CFI-HSA S527G (enzyme)	0.09	0.16	–
